Test system: SARS-CoV-2
Assay type: cell-based

B1: lactoferrin (protein, UniProt P02788 20-710, looked up)
Lactotransferrin: GRRRSVQWCAVSQPEATKCFQWQRNMRKVRGPPVSCIKRDSPIQCIQAIAENRADAVTLDGGFIYEAGLAPYKLRPVAAEVYGTERQPRTHYYAVAVVKKGGSFQLNELQGLKSCHTGLRRTAGWNVPIGTLRPFLNWTGPPEPIEAAVARFFSASCVPGADKGQFPNLCRLCAGTGENKCAFSSQEPYFSYSGAFKCLRDGAGDVAFIRESTVFEDLSDEAERDEYELLCPDNTRKPVDKFKDCHLARVPSHAVVARSVNGKEDAIWNLLRQAQEKFGKDKSPKFQLFGSPSGQKDLLFKDSAIGFSRVPPRIDSGLYLGSGYFTAIQNLRKSEEEVAARRARVVWCAVGEQELRKCNQWSGLSEGSVTCSSASTTEDCIALVLKGEADAMSLDGGYVYTAGKCGLVPVLAENYKSQQSSDPDPNCVDRPVEGYLAVAVVRRSDTSLTWNSVKGKKSCHTAVDRTAGWNIPMGLLFNQTGSCKFDEYFSQSCAPGSDPRSNLCALCIGDEQGENKCVPNSNERYYGYTGAFRCLAENAGDVAFVKDVTVLQNTDGNNNEAWAKDLKLADFALLCLDGKRKPVTEARSCHLAMAPNHAVVSRMDKVERLKQVLLHQQAKFGRNGSDCPDKFCLFQSETKNLLFNDNTECLARLHGKTTYEKYLGPQYVAGITNLKKCSTSPLLEACEFLRK
efficacy in preventing SARS-CoV-2 infection (Huh-7 cells, FIG. 2): ~100% | inhibition of SARS-CoV-2 infection (efficacy) (all concentrations of lactoferrin tested, FIG. 3B): 100% | reduction in SARS-Cov-2 synctitia (dose response study, all concentrations tested ranging from 200 ug/mL to 12.5 ug/mL, compared to viral control, FIG. 3A): > 95%

From patent US20230149515A1, “INHIBITION OF SARS-COV-2 VIRAL ENTRY THROUGH ORAL ADMINISTRATION OF L[…] USES THEREOF” (priority 2020, published 2023)
